# Entries after “also recorded” stand apart in the source; their conditions may differ.
# B1: IMH001: humanized IgG1 anti-GM-CSF neutralization antibody with VH of SEQ ID NO:1 and VL of SEQ ID NO:2 (antibody, V domains shown)
# VH: EVQLVQSGAEVKKPGASVKVSCKASGYTFTSHYLHWVRQAPGQGLEWMGWIFPGDDKTKYNEKFKGRVTMTSDTSISTAYMELSRLRSDDTAVYYCARGTKYLNWNFDVWGQGTTVTVSS
# VL: DIQLTQSPSFLSASVGDRVTITCKANQNVGTTLAWYQQKPGKSPKALIYSASYRYSGVPDRFSGSGSGTDFTLTISSLQPEDFATYFCHQYTTYPLTFGGGTKVEIK
# What was measured:
# [1] = tested on: macrophage activation syndrome (MAS) model in NOG-EXL mice (overexpress human IL-3 and GM-CSF); test: macrophage activation syndrome (MAS) model induced by CBMC transplantation in NOG-EXL mice; assay type: in vivo
# Description: This study is performed to evaluate the in vivo efficacy of IMH001 (see sequences in Table 1), a GM-CSF neutralization antibody, on delaying the disease progression in a macrophage activation syndrome (MAS) model (induced by CBMC transplantation) in NOG-EXL mice. This lymphocyte-independent, effector-driven MAS mice model can be established by engrafting human umbilical cord blood (UCB) into NOG-EXL mice. NOG-EXL (NOD.Cg-Prkdc^scidIL2g^tm1SugTg (SV40/HTLV-IL3, CSF2) is a gene modified strain based on NOG (NOD.Cg-Prkdc^scidIL2^tm1Sug) mice, which is immunodeficient and overexpress human IL-3 and GM-CSF continuously, which can enrich the myeloid cell populations, including Dc, monocyte and macrophage, following human stem cell engraftment. A total of 46 NOG-EXL and 8 NOG mice were used in the study.
# Five to six-week-old NOG-EXL mice were irradiated with 1 Gy before tail vein injection of OKT3-pretreated cord blood mononuclear cells (CBMC) reconstitution. The day of reconstruction was defined as Day 0. OKT3-pretreated CBMC engrafted NOG-EXL mice were treated with biweekly i.p. doses of PBS or 10 mg/kg IMH001 starting from week 1 of engraftment. Animal body weights, CBC counting, and serum ferritin were measured at indicated time points.
# Four NOG mice (G1) and 14 NOG-EXL mice (6 mice for G2 and 8 mice for G3, respectively) were dosed one week after reconstruction (Day 7), twice a week for 15 weeks. The grouping and dosing regimens were as follows in Table 2:
# Body weight: The body weight of mice was measured and recorded once a week after CBMC transplantation.
# CBC counting: Whole blood was collected from mice and counted by a CBC machine at week 4, 8 and 16. And at the end of the study, i.e. week 16, total bone marrow viable cells were also counted. Before blood collection, mice were anesthetized with 3-4% isoflurane.
# Ferritin, fibrinogen and triglycerides: Serum was collected from mice at week 8 and 16. Then measured separately using ELISA kits. Prior to blood collection, mice were anesthetized with 3-4% isoflurane.
# Experimental endpoint collection: The endpoint is Day 112/Week 16. Spleens were collected and weighed from all mice of each groups; cell smears from bone marrow, sections of liver and spleen were collected for Wright Giemsa staining to detect the presence of hemophagocytosis. Activated lymphoid tissue, spleen/lymph nodes, liver, and meninges were collected for H&E section to detect inflammatory cell infiltration and depletion of lymphoid follicles in spleen/lymph nodes.
# All data statistical analysis methods involved in this project needed to be consistent with the protocol, and the results were expressed as mean±SEM. Firstly, F-test (IDBS E-WorkBook 10.5.0 (64 bit) © TDBS) was used to analyze the homogeneity of variance. If the variance was homogeneity (p>0.05), one-way ANOVA was carried out. T-test was used for two groups comparation, and Dunnett's multiple comparison method was used for multiple groups comparation. If the variance was heterocedasticity (p≤0.05), Kruskal Wallis method was performed for nonparametric test, U-test was used for two groups comparation (Kruskal Wallis parameter test has significant difference, p≤0.05), and Dunn's multiple comparison method was used for multiple groups comparation (Kruskal Wallis parameter test has no significant difference, p>0.05). p<0.05 was considered as significant difference.
# [2] = assay type: physicochemical
# Description: Three different buffer systems, sodium acetate, histidine hydrochloride and sodium dihydrogen phosphate, were initially evaluated, at various different pH levels, for IMH001. […] The next step evaluated a number of excipients, including sucrose, trehalose, mannitol, proline, arginine hydrochloride, glycine, solidum chloride, PS20 and PS80. According to the changes in stability (CEX-HPLC) results at 50° C. for 1 week, comparison was carried out for the formulation with different excipients. […] It was unknown, however, whether the selected buffer and excipient would allow a protein solubility of IMH001 suitable for subcutaneous injection at a high concentration. The solubility and viscosity of the protein at concentrations of 100 mg/ml and 150 mg/ml in histidine hydrochloride buffer system (pH 5.8) were therefore assessed. […] PS80 (Polysorbate 80) was then tested for its ability to improve durability and stability of the candidate formulations, at different concentrations of sucrose for a protein concentration of 100 mg/ml.
# [3] = serum, week 8 and 16, 10 mg/kg i.p. BIW
# [4] = 100 mg/ml and 150 mg/ml in 20 mmol/L histidine hydrochloride pH 5.8, 4° C. and 25° C. for 48 hours
molecule,measurement,setting,value
B1,body weight,"[1]; 10 mg/kg i.p. BIW (G3) vs vehicle control group (G2), Day 63 to Day 112, p<0.05",significantly increased; also recorded: reduced weight loss
same,disease development / progression (overall),[1]; 10 mg/kg i.p. BIW for 15 weeks,completely reversed; also recorded: showed efficacy
same,NEUT percent,[1]; 10 mg/kg i.p. BIW vs untreated,recovery
same,RBC number in peripheral blood (anemia),"[1]; 10 mg/kg i.p. BIW vs untreated NOG-EXL, in words",effectively improve; also recorded: ameliorated anemia
same,HGB level,"[1]; 10 mg/kg i.p. BIW vs untreated, Day 56",significantly higher; also recorded: increase
same,monocyte percent,"[1]; 10 mg/kg i.p. BIW, considered pharmacological effect",decrease
same,total bone marrow viable cells (mean value),"[1]; day 112, 10 mg/kg i.p. BIW, vs NOG-EXL untreated 9.55, p=0.182",11.6
same,RBC cell number,"[1]; peripheral blood CBC, Day 56, 10 mg/kg i.p. BIW, vs untreated 6.45, p<0.001",8.17
same,Fibrinogen,[1]; [3],No significant changes
same,Triglyceride,[1]; [3],No significant changes
same,Ferritin level,"[1]; serum, wk 8 and wk 16, 10 mg/kg i.p. BIW vs untreated",effectively control; also recorded: significantly reduce; also recorded: inhibited ferritin increase
same,inflammatory infiltration (histopathology),"[1]; wk 16, H&E, liver and meninx",decreased; also recorded: improved significantly
same,lymphocyte exhaustion (histopathology),"[1]; wk 16, H&E, spleen and lymph nodes",effectively reduce; also recorded: improved significantly
same,hemophagocytosis (histopathology),"[1]; wk 16, Wright Giemsa staining of bone marrow smears, liver and spleen sections",effectively prevent; also recorded: improved significantly
same,antibody stability in buffer systems,[2],stable
same,"changes in appearance color, clarity, OD350, protein concentration and viscosity",[2]; [4],no obvious changes
same,viscosity,[2]; [4],lower than 10 cP
same,viscosity of samples with PS80 and different sucrose concentrations,[2]; protein concentration 100 mg/ml,acceptable
